Laboratory results published in patent US20190071499A1 (published 2019).

Key:
Experiment in all cases: SPR
human IFN-α4 = target: T1, human IFN-α4 (human, UniProt P05014 24-189)
T1 chain: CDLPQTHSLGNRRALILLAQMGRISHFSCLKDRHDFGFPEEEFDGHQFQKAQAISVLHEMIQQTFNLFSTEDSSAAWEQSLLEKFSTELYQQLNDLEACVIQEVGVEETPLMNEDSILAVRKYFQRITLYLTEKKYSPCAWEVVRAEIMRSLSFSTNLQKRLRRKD

human IFN-α14 = target: T2, human IFN-α14 (human, UniProt P01570 24-189)
T2 chain: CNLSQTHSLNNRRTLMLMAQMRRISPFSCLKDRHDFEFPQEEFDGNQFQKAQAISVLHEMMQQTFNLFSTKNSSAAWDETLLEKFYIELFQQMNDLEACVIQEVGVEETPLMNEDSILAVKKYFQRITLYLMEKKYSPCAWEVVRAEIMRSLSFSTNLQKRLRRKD

human IFN-ω = human IFN-ω (human, UniProt P05000 24-195)
Sequence of human IFN-ω (P05000 24-195): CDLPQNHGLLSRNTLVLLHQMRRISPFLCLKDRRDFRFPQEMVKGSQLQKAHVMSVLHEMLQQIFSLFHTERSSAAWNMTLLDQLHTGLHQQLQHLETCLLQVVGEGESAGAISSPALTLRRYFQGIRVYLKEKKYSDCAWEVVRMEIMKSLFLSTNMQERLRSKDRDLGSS

Kd (human IFN-α4): 0.0375 pM
Kd (human IFN-α14): 0.0328 pM
Kd (human IFN-ω): 0.125 pM
B1: 26B9 (antibody, V domains shown)
VH: QILLQESGPGLVKPTETLSLTCSVSGDSISDSSHYWAWIRQPPGKGPEWIGSVYFSSMTHYNPSLKSRVSISVDKPKNQFSLKVTSVTVADTATYYCARQALARVGAMNWFDPWGQGSLVTVSS
VL: DIIMTQSPDSLPVSLGEGVTINCKSSQSVFFTSSNKSCLAWYQQKPGKSPKLLIYWASTRQSGVPDRFRGSGSGTDFSLTITSLQAEDVAVYFCQQCQTSPPTFGGGTRLEIKR
